Assay results as given in CN117736324A.

Legend:
[1] = molecular target: T1, 人Siglec-15抗原 (Siglec-15蛋白胞外段) (human) (UniProt Q6ZMC9); assay: ELISA, relative binding activity of HA-I purified by the method of Example 30; reference not given
T1 sequence (looked up): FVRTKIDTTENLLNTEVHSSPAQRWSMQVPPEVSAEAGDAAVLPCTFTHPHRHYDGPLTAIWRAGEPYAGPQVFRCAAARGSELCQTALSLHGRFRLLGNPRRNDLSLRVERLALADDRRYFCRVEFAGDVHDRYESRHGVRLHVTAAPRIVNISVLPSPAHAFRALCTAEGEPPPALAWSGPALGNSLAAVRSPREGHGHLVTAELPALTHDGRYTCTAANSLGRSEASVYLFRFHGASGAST

[2] = molecular target: T1, 人Siglec-15抗原 (Siglec-15蛋白胞外段) (human); assay: ELISA, relative binding activity of HA-I purified by the method of Example 33; reference not given
[3] = molecular target: T1, 人Siglec-15抗原 (Siglec-15蛋白胞外段) (human); assay: ELISA, relative binding activity of HA-I purified by the method of Example 32; reference not given
[4] = molecular target: T1, 人Siglec-15抗原 (Siglec-15蛋白胞外段) (human); assay: ELISA, relative binding activity of HA-I purified by the method of Example 31; reference not given
[5] = molecular target: T1, 人Siglec-15抗原 (Siglec-15蛋白胞外段) (human); assay: ELISA, relative binding activity of HA-I purified by the method of Example 29; reference not given
[6] = molecular target: T1, 人Siglec-15抗原 (Siglec-15蛋白胞外段) (human); assay: ELISA, relative binding activity of HA-I purified by the method of Example 28; reference not given
[7] = molecular target: T1, 人Siglec-15抗原 (Siglec-15蛋白胞外段) (human); assay: ELISA, relative binding activity of HA-I purified by the method of Example 26; reference not given
[8] = molecular target: T1, 人Siglec-15抗原 (Siglec-15蛋白胞外段) (human); assay: ELISA, relative binding activity of HA-I purified by the method of Example 24; reference not given
[9] = molecular target: T1, 人Siglec-15抗原 (Siglec-15蛋白胞外段) (human); assay: ELISA, relative binding activity of HA-I purified by the method of Example 27; reference not given

结合活性(%) [1]: 105%
结合活性(%) [2]: 83%
结合活性(%) [3]: 86%
结合活性(%) [4]: 79%
结合活性(%) [5]: 78%
结合活性(%) [6]: 90%
结合活性(%) [7]: 112%
结合活性(%) [8]: 100%
结合活性(%) [9]: 88%
B1: 抗Siglec-15单克隆抗体HA-I (人源化抗体分子, human IgG1/Ck) (antibody, V domains shown)
VH: QVQLVQSGAEVKKPGASVKVSCKASGYTFTDYNMFWVRQAPGQRLEWIGYIYPDNGGTGYNQNFKSKATLTVDNSASTAYMELSSLRSEDTAVYYCARSEYDYFDYWGQGTLVTVSS
VL: DIVLTQSPSSLSASVGDRVTITCRASQDISNYLNWYQQKPGKAVKLLIYYTSRLHSGVPSRFSGSGSGTDYTFTISSLQPEDIATYFCQQGNTLPLTFGQGTKVELKR
